According to patent US20200330603A1, “PEPTIDES FOR RENAL THERAPY” (FRED HUTCHINSON CANCER RESEARCH CENTER, priority 2015, published 2020):
Ends that are not written are not given here.

Assays:
[1] = Confocal imaging of kidneys 30 minutes after administration; format: in vivo, mice; settings: 10 nmol
From the text: Kidneys were isolated, sectioned, and imaged using a Zeiss confocal microscopy.

[2] = Competitive renal uptake studies, fluorescence imaging of whole organs; format: in vivo, mice; settings: 10 nmol iv, 4 hours, p-value of 0.015
Procedure: This example describes competitive uptake studies of peptides of this disclosure in kidneys. Peptides of this disclosure were compared to known kidney homers (“competitors”) to assess the efficiency and strength of kidney targeting. Three competitors were tested against a peptide of SEQ ID NO: 4, and kidney uptake was quantified by fluorescence imaging of whole organs on a Spectrum IVIS imager.
Kidneys from uninjected mice were used as a negative control. Fluorescence signal in each group was quantified to determine the average radiant efficiency in the kidneys from three mice per cohort. Data are shown as mean and error bars indicate standard deviation. A p-value of 0.0081 was calculated by a T-test, and the error bars indicate standard deviation. In this experiment, the unlabeled SEQ ID NO: 4 peptide competed with the SEQ ID NO: 4-AF647 as shown by decreased fluorescence and thus, decreased accumulation of the dye labeled peptide in the kidney. […] Fluorescence signal in each group was quantified to determine the average radiant efficiency in the kidneys from three mice per cohort. Data are shown as mean and error bars indicate standard deviation. Kidney uptake of a peptide of SEQ ID NO: 4-AF647 was not dampened by SEQ ID NO: 121 peptide even at the highest ratio of competitor. […] Fluorescence signal in each group was quantified to determine the average radiant efficiency in the kidneys from three mice per cohort. Data are shown as mean and error bars indicate standard deviation. A p-value of 0.015 was calculated by a Student's unpaired t-test.

## SEQ ID NO: 4-AF647: SEQ ID NO: 4 conjugated to AF647 (GSSCEPGRTFRDRCNTCRCGADGRSAACTLRACPNQ; not fully specified; cysteine pairing not given here)
[1]
  accumulation of dye in the kidney proximal tubules (FIG. 13): can deliver and accumulate dye when attached as a conjugate in the kidney proximal tubules
[2]
  renal uptake compared with control peptide-AF647 (FIG. 12): significantly higher extent than the control peptide
